These results are taken from patent US20120295811, “APTAMERS DIRECTED AGAINST THE MATRIX PROTEIN-1 OF TYPE A INFLUENZA VIRUSES AND USES […]” (published 2012).

This data set has as its target Nucleoprotein (NP) (Influenza A virus, UniProt P03466 SEQ:1-498). Kind of data set: SPR; 2 uM, 22 C. Conditions: tags: His tag (pET28a, Co2+ resin purification), E. coli; label: 5'-amino-C12 linker (microarray); hairpin with bulge, internal loop and lateral small hairpin.

Chain of Nucleoprotein (NP) (P03466 whole entry): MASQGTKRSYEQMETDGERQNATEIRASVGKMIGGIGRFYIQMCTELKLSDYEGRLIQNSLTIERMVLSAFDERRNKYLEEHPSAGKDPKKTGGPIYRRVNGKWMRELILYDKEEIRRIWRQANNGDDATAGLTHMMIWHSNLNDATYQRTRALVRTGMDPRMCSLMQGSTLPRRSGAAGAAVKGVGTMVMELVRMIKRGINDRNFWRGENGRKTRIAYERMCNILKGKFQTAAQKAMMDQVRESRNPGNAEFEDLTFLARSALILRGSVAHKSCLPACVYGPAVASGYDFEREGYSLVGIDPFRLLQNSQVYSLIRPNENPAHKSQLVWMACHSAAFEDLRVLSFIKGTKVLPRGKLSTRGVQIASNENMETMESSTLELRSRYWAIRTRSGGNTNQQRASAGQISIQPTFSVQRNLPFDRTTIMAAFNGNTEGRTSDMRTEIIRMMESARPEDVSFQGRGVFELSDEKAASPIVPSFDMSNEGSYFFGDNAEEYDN

For the molecule UGCCCUGACCAUCCUGAGGGACGCAUUGGCCGGGCA (ssRNA) [M1R9C6 36-mer], the binding result is “no binding”.
On to UGCCUGACCACUCAGAAUCGAGCGCAUUGGCCGGCA (ssRNA) [M1R9C1 36-mer], for which the binding result is “no binding”.
